± gives the standard deviation of the averaged measurements.

This data set relates to ATP. Nature of the data set: switch fluorescence ratio, 500 uM ATP over buffer (Cy3 cluster intensity, sum of 5 cycles each) (fold (ratio)); higher = stronger signal-on switching upon ATP binding; sequences stand for … in TCGTCGGCAGCGTCAGATGTGTATAAGAGACAGTTTTTTTTTTTTTTTTTTTTTTTTT…TC. Particulars: aptamer strand: ATP DNA aptamer (quencher-CACCTGGGGGAGTATTGCGGAGGAAGG + anchor), 100 nM annealed; ATP concentration: 500 uM. In a few lines:
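The quencher-labelled ATP aptamer, at 100 nM, was annealed to Cy3-labelled switching-strand clusters on a modified Illumina MiSeq flow-cell. The clusters were imaged in selection buffer, then after 15 min with 500 uM ATP at 22 °C, and this buffer/ATP cycle ran five times with NaOH stripping and re-annealing between runs. Per-cluster fluorescence ratios, summed target-cycle over summed buffer-cycle Cy3 intensity, were averaged per switch-domain sequence. Clusters outside 100-1000 RFU were excluded.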
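Further: ATP exposure 15 min at 22 °C before imaging.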

For ACTAAGAATT, the switch fluorescence ratio turned out to be 1.02 ± 0.013. Consider TGGGTTAATC, for which the switch fluorescence ratio was 1.01 ± 0.052. With GCTTGAGGGA the figure was 0.984 ± 0.042; with AGGATGTGCT, 0.9655 ± 0.006. With CAATTGGGGT the figure was 1.03 ± 0.06; with ATTTGTAAGA, 0.9927 ± 0.0045; with GGGGACAGGT, 1.03 ± 0.0057.

CGGAAAATGT: the switch fluorescence ratio was 0.962 ± 0.016. In the case of TTTTGGTACC, the switch fluorescence ratio amounted to 1.02 ± 0.015. Consider AAGGGAGGCG, for which the switch fluorescence ratio stood at 1.14 ± 0.2. With TCAAATCGGT the figure was 1.03 ± 0.042; with GTTTTTTCAT, 1.02 ± 0.023. The result for CAGTAGCGG reads 1.14 ± 0.018. With AGGCGTGAGG the figure was 1.01 ± 0.049. ATAACAGGAT: the switch fluorescence ratio stood at 0.986 ± 0.033. As to GGGTGTAAGG, the switch fluorescence ratio was 0.998 ± 0.022. With CTGATATTTG the figure was 0.998 ± 0.022; with GATAGGGGGA, 0.984 ± 0.058; with CTCTGTTTGG, 0.957 ± 0.021.

Take CGTATGTTGG: the switch fluorescence ratio amounted to 1.04 ± 0.012. Consider GGGTACAGCT, for which the switch fluorescence ratio worked out at 1.014 ± 0.0047. Regarding TGCTATGGC, the switch fluorescence ratio was 1.09 ± 0.092.

Turning to AAGGGGTGAA, the switch fluorescence ratio is 0.989 ± 0.017. For the sequence CGGTTGTAAA, the switch fluorescence ratio is 1.02 ± 0.013. For GAATCTCGGA, the switch fluorescence ratio was 1.018 ± 0.0018. With GAACGTGGCA the figure was 0.9956 ± 0.0095. With TGTGTGTTTG the figure was 0.989 ± 0.015; with GTTAAAGATA, 0.9918 ± 0.00016. As for TTTATGCTGC, the switch fluorescence ratio came out at 1.05 ± 0.038. Turning to TGTGGGGTAG, the switch fluorescence ratio worked out at 1.01 ± 0.029. With ACTTAGCATT the figure was 1.14 ± 0.024; with GGGTAGATGC, 1.01 ± 0.052; with TTGAGTTTGT, 0.977 ± 0.015. With CCAGTGAATA, the switch fluorescence ratio worked out at 1.06 ± 0.021. With TTTAACAGTA the figure was 1.04 ± 0.044; with GGGGGGACGA, 1.01 ± 0.033; with GTTGGGCTAT, 0.9916 ± 0.0024. CGCCAGCAGC: the switch fluorescence ratio came out at 1.6 ± 0.035.

In the case of GTGGTAGCAC, the switch fluorescence ratio was 1.01 ± 0.025.

On to TCGTAAATTT, for which the switch fluorescence ratio is 0.973 ± 0.055.

As to AACTTTGTTT, the switch fluorescence ratio worked out at 0.9832 ± 0.0047. With AAGTCATTTA the figure was 0.9881 ± 0.0096. With AAATGGCTGG the figure was 0.9982 ± 0.0091; with ATAAGGGTCC, 1.04 ± 0.066. With TTATCGCGAC, the switch fluorescence ratio turned out to be 1.67 ± 0.82. With TATAGTGGCG the figure was 1.02 ± 0.051. With GGGTAAATTA the figure was 0.989 ± 0.042; with TTAGGTGTTT, 1.54 ± 0.69. In the case of TTTCCATTTT, the switch fluorescence ratio stood at 1.02 ± 0.074. On to TCGACCTTCT, for which the switch fluorescence ratio worked out at 1.77 ± 0.17. On to GCATAGGGGG, for which the switch fluorescence ratio came out at 1.03 ± 0.081. The result for TTACGTGCAT reads 1.01 ± 0.011; that for GGCTATTTAA, 1.002 ± 0.0063; that for CTAGAGGGTA, 0.98923 ± 0.00094. With CAACAGGGGT the figure was 1.14 ± 0.23. With CTATATTAGG the figure was 0.997 ± 0.032; with CAGTGAGGTT, 1.02 ± 0.031; with TTAAAATTCT, 1.04 ± 0.06.

As to CAGGGTGTGC, the switch fluorescence ratio amounted to 1.012 ± 0.00054. In the case of GCTTGTTAAA, the switch fluorescence ratio is 0.994 ± 0.037. For the sequence GGGGTCCCAG, the switch fluorescence ratio worked out at 0.971 ± 0.03. The result for GCTATAGTGG reads 1.04 ± 0.035; that for CGGGTTCAT, 1.01 ± 0.028; that for TGAGGTGGGG, 0.9887 ± 0.0027.

On to CGGTAGTCAG, for which the switch fluorescence ratio worked out at 0.9983 ± 0.008. With TTTGCGGGGT the figure was 1.03 ± 0.034; with TAATAAGAGA, 0.985 ± 0.015.

Values taken from the supplement of paper PMC10126150.
